Reference: US20230167182A1 (BIOSION, published 2023)
Blank lines part the entries; values can stand above or below the binder they belong to.

How the values were obtained:
[1] = target: T1, recombinant human IL6R-his (human, UniProt P08887 20-365); assay: SPR Biacore; antibody from diluted cell supernatant captured by anti-human IgG on CM5, human IL6R in flow
T1 construct: In house made; the entry includes the C-terminal His tag; also called human IL6R-his protein
T1 sequence: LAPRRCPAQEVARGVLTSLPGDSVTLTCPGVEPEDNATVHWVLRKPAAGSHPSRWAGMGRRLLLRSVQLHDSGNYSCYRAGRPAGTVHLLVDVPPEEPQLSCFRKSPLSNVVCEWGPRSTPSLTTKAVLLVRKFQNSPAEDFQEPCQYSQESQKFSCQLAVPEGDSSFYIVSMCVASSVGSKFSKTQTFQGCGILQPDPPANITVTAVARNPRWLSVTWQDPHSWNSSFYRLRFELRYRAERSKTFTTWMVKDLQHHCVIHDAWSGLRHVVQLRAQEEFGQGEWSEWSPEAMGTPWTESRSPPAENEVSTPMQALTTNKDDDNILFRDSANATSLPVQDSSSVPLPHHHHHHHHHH
Procedure: (§1) Un-reacted moieties on the biosensor surface were blocked with ethanolamine. […] Then, serially diluted recombinant human IL6R-his (in house made, amino acid sequence set forth in SEQ ID NO: 44) or macaca IL6R-his protein (in house made, amino acid sequence set forth in SEQ ID NO: 45), starting at 100 nM with a 2-fold serial dilution in HBS-EP⁺ buffer (provided by Biacore), was flowed onto the chip at a flow rate of 30 μL/min. The antigen-antibody association kinetics was followed for 2 minutes and the dissociation kinetics was followed for 10 minutes. The association and dissociation curves were fit to a 1:1 Langmuir binding model using BIAcore evaluation software.
Cell supernatants containing humanized antibodies were harvested after six days in shaking flasks and directly subjected to BIAcore test following the protocol described above with modifications.

[2] = target: T1, recombinant human IL6R-his; assay: SPR Biacore; antibody captured by anti-human IgG on CM5, human IL6R-his at 100 nM
Procedure: as §1
The recombinant human IL6R-his (amino acid sequence set forth in SEQ ID NO: 44) at the concentration of 100 nM instead of serially diluted recombinant human IL6R-his, was flowed onto the chip at a flow rate of 30 μL/min.

macaca IL6R-his protein = target: T2, macaca IL6R-his protein (macaca mulatta); assay: SPR Biacore T200; antibody captured on Protein G chip, antigen in flow, 1:1 fit
T2 chain: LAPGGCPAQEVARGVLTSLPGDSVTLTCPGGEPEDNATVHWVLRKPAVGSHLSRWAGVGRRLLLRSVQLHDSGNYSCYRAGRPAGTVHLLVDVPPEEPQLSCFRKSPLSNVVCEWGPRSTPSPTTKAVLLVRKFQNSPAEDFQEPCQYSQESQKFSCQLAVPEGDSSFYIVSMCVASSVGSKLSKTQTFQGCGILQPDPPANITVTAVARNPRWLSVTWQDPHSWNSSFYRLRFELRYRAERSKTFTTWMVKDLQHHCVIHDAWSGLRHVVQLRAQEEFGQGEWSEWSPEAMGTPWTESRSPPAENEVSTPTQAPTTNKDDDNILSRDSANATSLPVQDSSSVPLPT
Procedure: as §1

[3] = target: T1, recombinant human IL6R-his; assay: as above
Procedure: as §1

human IL6R-Fc protein [4] = target: T3, human IL6R-Fc protein (human, biotin-labeled in the ELISAs (sites not given)); assay: capture ELISA: antibody captured on anti-IgG F(ab')2 coated plate, then biotin-labeled human IL6R-Fc, streptavidin-HRP
T3 construct: In house made; also called biotin-labeled human IL6R-Fc protein
Procedure: For the capture ELISA, 96-well micro plates were coated with 2 μg/ml AffiniPure Goat Anti-Mouse IgG, F(ab′)₂ fragment specific (Jackson ImmunoResearch Laboratories, Inc., Cat #115-005-072) in PBS, 100 μl/well, and incubated for 2 hours at 37° C. Plates were washed once with wash buffer (PBS+0.05% v/v Tween-20, PBST) and then blocked with 200 μl/well blocking buffer (5% w/v non-fatty milk in PBST) overnight at 4° C. […] Plates containing captured anti-IL6R antibodies were incubated with biotin-labeled human IL6R-Fc protein (prepared in house, SEQ ID NO: 43, 39.5 ng/ml in 2.5% w/v non-fatty milk in PBST, 100 μl/well) for 40 minutes at 37° C., washed 4 times, and incubated with streptavidin conjugated HRP (1:10000 dilution in PBST, Jackson ImmunoResearch Laboratories, Inc., Cat #016-030-084, 100 μl/well) for 40 minutes at 37° C. After a final wash, plates were incubated with 100 μl/well ELISA substrate TMB (InnoReagents, Cat #TMB-S-002). The reaction was stopped 3-10 minutes later at room temperature with 50 μl/well 1M H₂SO₄, and the absorbance of each well was read on a microplate reader using dual wavelength mode at 450 nm for TMB and 630 nm as the reference wavelength. Then the OD (450-630) values were plotted against antibody concentration. Data was analyzed using Graphpad Prism software and EC₅₀ values were reported.
For the capture ELISA, AffiniPure Goat Anti-Human IgG, F(ab′)₂ fragment specific (Jackson Immuno Research, Cat #109-005-097) was used instead of AffiniPure Goat Anti-Mouse IgG, F(ab′)₂ fragment specific, 100 μl/well.

human IL6R-Fc protein [5] = target: T3, human IL6R-Fc protein; assay: benchmark blocking ELISA: antibody pre-incubated with biotin-labeled human IL6R-Fc, added to plate-coated Tocilizumab (competitor: Tocilizumab)

Kd [1]: 526 pM | koff [1]: 0.000195 s⁻¹ | kon [1]: 370000 M⁻¹ s⁻¹
B1: humanized antibody hu1H7-V5 (antibody, human IgG1, kappa, V domains shown)
VH: QVQLVQSGAEVKKPGASVKVSCKASGYTFTNYWMHWVRQAPGQGLEWIGEINPTNGRTNYNENFKSRVTLTVDTSTSTVYMELSSLRSEDTAVYYCARLNTHYVFDSWGQGTLVTVSS
VL: EIVLTQSPGTLSLSPGERATLSCSVSSSISSNYLHWYQQKPGLSPRLLISRTSTLASGIPARFSGSGSGTEYTLTISRMQSEDFAVYYCQQGSGIPFTFGQGTKLEIKR
notes: Human IgG1 / kappa

Kd [2]: 400 pM | koff [2]: 5.21e-05 s⁻¹ | kon [2]: 130000 M⁻¹ s⁻¹
B2: Chimeric 1H7 (antibody, human IgG1, kappa, V domains shown)
VH: QVQLQQPGTELVKPGASVKLSCKASGYTFTNYWMHWVKQRPGQGLDWIGEINPTNGRTNYNENFKSKATLTVDKSSSTAYMQLSSLTSEDSAVYYCARLNTHYVFDSWGQGTTLTLSS
VL: EIVLTQSPTTLAASPGEKITFTCSVSSSISSNYLHWYQQKPGFSPKLLISRTSTLASGVPARFSGSGSGTSYSLTIGTMEAEDVATYYCQQGSGIPFTFGSGTKLELKR
notes: Mouse variable regions on human IgG1 / human kappa constant regions; also called chimeric antibody 1H7

Kd (macaca IL6R-his protein): 3800 pM | Kd [3]: 3260 pM | Kd [2]: 3260 pM | EC50 (human IL6R-Fc protein [4]): 180 pM | IC50 (human IL6R-Fc protein [5]): 770 pM
B3: Tocilizumab (antibody, human IgG1, kappa, V domains shown)
VH: QVQLQESGPGLVRPSQTLSLTCTVSGYSITSDHAWSWVRQPPGRGLEWIGYISYSGITTYNPSLKSRVTMLRDTSKNQFSLRLSSVTAADTAVYYCARSLARTTAMDYWGQGSLVTVSS
VL: DIQMTQSPSSLSASVGDRVTITCRASQDISSYLNWYQQKPGKAPKLLIYYTSRLHSGVPSRFSGSGSGTDFTFTISSLQPEDIATYYCQQGNTLPYTFGQGTKVEIKR
notes: In house made; also called benchmark; Actemra

EC50 (human IL6R-Fc protein [4]): 83.4 pM | IC50 (human IL6R-Fc protein [5]): 394 pM
B4: mouse anti-IL6R monoclonal antibody 1H9 (antibody, V domains shown)
VH: QVQLQQPGAELVKPGASVKLSCKASGYTFTSYWMHWVKLRPGQGLEWIGEINPTNGRTNYYEKFKNRATLTADKSSSTAYMQLSSLTFEDSAVYFCAKFHYSRWYFDVWGTGTTVTVSS
VL: DIVMTQSQKFMSTSVGDRVSITCKASQNVGTAVVWYQQKPGQSPKLLINPASNRYTGVPDRFTGSGSGTDFTLTISNMQSEDLADYFCQQYSSYPLTFGAGTKLELK
notes: Mouse hybridoma mAb
